According to article PMC11093360:

What was measured:
M2trunk(1–228) (human) = M2trunk(1–228) (human) (UniProt P08172)
M2trunk(1–283) (human) = M2trunk(1–283) (human) (UniProt P08172)

Bmax of [3H]NMS binding sites in COS-7 cells cotransfected with both fragments (M2trunk(1–228) alone: N.B.) (M2trunk(1–228) (human)) [fmol/mg]	Maximum inhibition of forskolin stimulated cAMP accumulation (%) by carbachol in COS-7 cells cotransfected with both fragments (M2trunk(1–228) (human)) [%]	Bmax of [3H]NMS binding sites in COS-7 cells cotransfected with both fragments (M2trunk(1–283) alone: N.B.) (M2trunk(1–283) (human)) [fmol/mg]	Maximum inhibition of forskolin stimulated cAMP accumulation (%) by carbachol in COS-7 cells cotransfected with both fragments (M2trunk(1–283) (human)) [%]	Substance
70	29			M2tail(368–466) (from UniProt P08172 368-466) (domain or fragment)
		480	37	M2tail(M-281-466) (from UniProt P08172 281-466) (domain or fragment)
